B1: anti-BCMA-AB1-Compound 1 (antibody, human IgG1, V domains shown)
VH: EVQLVESGGGLVKPGGSLRLSCAASGFTSSTAWMSWVRQAPGKGLEWVGRIKSKSDGGTTDYAAPVKGRFTISRDDSKNTLFLQMNSLKTEDTAVYYCAKGGGTYGYWGQGTTVTVSS
VL: QSVLTQPASVSGSPGQSVTISCTGTSSAHGGHYYVSWYQQHPGKAPKLMIYDVSNRPSGVSNRFSGSKSGNTASLTISGLQAEDEADYYCGSYTSSGSYVFGTGTKLTVL
modifications: drug-linker Compound 1 on antibody cysteine thiols (positions not stated)
B2: anti-BCMA-AB1-Compound 2 (antibody, human IgG1, V domains shown)
VH: EVQLVESGGGLVKPGGSLRLSCAASGFTSSTAWMSWVRQAPGKGLEWVGRIKSKSDGGTTDYAAPVKGRFTISRDDSKNTLFLQMNSLKTEDTAVYYCAKGGGTYGYWGQGTTVTVSS
VL: QSVLTQPASVSGSPGQSVTISCTGTSSAHGGHYYVSWYQQHPGKAPKLMIYDVSNRPSGVSNRFSGSKSGNTASLTISGLQAEDEADYYCGSYTSSGSYVFGTGTKLTVL
modifications: drug-linker Compound 2 on antibody cysteine thiols (positions not stated)
B3: anti-BCMA-AB1-Compound 7 (antibody, human IgG1, V domains shown)
VH: EVQLVESGGGLVKPGGSLRLSCAASGFTSSTAWMSWVRQAPGKGLEWVGRIKSKSDGGTTDYAAPVKGRFTISRDDSKNTLFLQMNSLKTEDTAVYYCAKGGGTYGYWGQGTTVTVSS
VL: QSVLTQPASVSGSPGQSVTISCTGTSSAHGGHYYVSWYQQHPGKAPKLMIYDVSNRPSGVSNRFSGSKSGNTASLTISGLQAEDEADYYCGSYTSSGSYVFGTGTKLTVL
modifications: drug-linker Compound 7 on antibody cysteine thiols (maleimide conjugation; positions not stated)
B4: anti-BCMA-AB1-Compound 4 (antibody, human IgG1, V domains shown)
VH: EVQLVESGGGLVKPGGSLRLSCAASGFTSSTAWMSWVRQAPGKGLEWVGRIKSKSDGGTTDYAAPVKGRFTISRDDSKNTLFLQMNSLKTEDTAVYYCAKGGGTYGYWGQGTTVTVSS
VL: QSVLTQPASVSGSPGQSVTISCTGTSSAHGGHYYVSWYQQHPGKAPKLMIYDVSNRPSGVSNRFSGSKSGNTASLTISGLQAEDEADYYCGSYTSSGSYVFGTGTKLTVL
modifications: drug-linker Compound 4 on antibody cysteine thiols (C-lock conjugation; positions not stated)
B5: anti-BCMA-AB1-Compound 5 (antibody, human IgG1, V domains shown)
VH: EVQLVESGGGLVKPGGSLRLSCAASGFTSSTAWMSWVRQAPGKGLEWVGRIKSKSDGGTTDYAAPVKGRFTISRDDSKNTLFLQMNSLKTEDTAVYYCAKGGGTYGYWGQGTTVTVSS
VL: QSVLTQPASVSGSPGQSVTISCTGTSSAHGGHYYVSWYQQHPGKAPKLMIYDVSNRPSGVSNRFSGSKSGNTASLTISGLQAEDEADYYCGSYTSSGSYVFGTGTKLTVL
modifications: drug-linker Compound 5 on antibody cysteine thiols (C-lock conjugation; positions not stated)
B6: anti-BCMA-AB1-Compound 8 (antibody, human IgG1, V domains shown)
VH: EVQLVESGGGLVKPGGSLRLSCAASGFTSSTAWMSWVRQAPGKGLEWVGRIKSKSDGGTTDYAAPVKGRFTISRDDSKNTLFLQMNSLKTEDTAVYYCAKGGGTYGYWGQGTTVTVSS
VL: QSVLTQPASVSGSPGQSVTISCTGTSSAHGGHYYVSWYQQHPGKAPKLMIYDVSNRPSGVSNRFSGSKSGNTASLTISGLQAEDEADYYCGSYTSSGSYVFGTGTKLTVL
modifications: drug-linker Compound 8 on antibody cysteine thiols (maleimide conjugation; positions not stated)
B7: anti-BCMA-AB1-Compound 6 (antibody, human IgG1, V domains shown)
VH: EVQLVESGGGLVKPGGSLRLSCAASGFTSSTAWMSWVRQAPGKGLEWVGRIKSKSDGGTTDYAAPVKGRFTISRDDSKNTLFLQMNSLKTEDTAVYYCAKGGGTYGYWGQGTTVTVSS
VL: QSVLTQPASVSGSPGQSVTISCTGTSSAHGGHYYVSWYQQHPGKAPKLMIYDVSNRPSGVSNRFSGSKSGNTASLTISGLQAEDEADYYCGSYTSSGSYVFGTGTKLTVL
modifications: drug-linker Compound 6 on antibody cysteine thiols (C-lock conjugation; positions not stated)
B8: anti-BCMA-AB2-Compound 7 (antibody, V domains shown)
VH: EVQLVESGGGLVKPGGSLRLSCAASGFTSSTAWMSWVRQAPGKGLEWVGRIKSKSDGGTTDYAAPVKGRFTISRDDSKNTLFLQMNSLKTEDTAVYYCAKGGGTYGYWGQGTTVTVSS
VL: QSALTQPASVSGSPGQSVTISCTGTSSDGGGHTYVSWYQQHPGKAPKLMIYDVSNRPSWVSNRFSGSKSGNTASLTISGLQAEDEADYYCGSYTSSGSYVFGTGTKLTVL
modifications: drug-linker Compound 7 on antibody cysteine thiols (positions not stated)
B9: anti-BCMA-AB2-Compound 3 (antibody, V domains shown)
VH: EVQLVESGGGLVKPGGSLRLSCAASGFTSSTAWMSWVRQAPGKGLEWVGRIKSKSDGGTTDYAAPVKGRFTISRDDSKNTLFLQMNSLKTEDTAVYYCAKGGGTYGYWGQGTTVTVSS
VL: QSALTQPASVSGSPGQSVTISCTGTSSDGGGHTYVSWYQQHPGKAPKLMIYDVSNRPSWVSNRFSGSKSGNTASLTISGLQAEDEADYYCGSYTSSGSYVFGTGTKLTVL
modifications: drug-linker Compound 3 on antibody cysteine thiols (positions not stated)
B10: anti-BCMA-AB2-Compound 5 (antibody, V domains shown)
VH: EVQLVESGGGLVKPGGSLRLSCAASGFTSSTAWMSWVRQAPGKGLEWVGRIKSKSDGGTTDYAAPVKGRFTISRDDSKNTLFLQMNSLKTEDTAVYYCAKGGGTYGYWGQGTTVTVSS
VL: QSALTQPASVSGSPGQSVTISCTGTSSDGGGHTYVSWYQQHPGKAPKLMIYDVSNRPSWVSNRFSGSKSGNTASLTISGLQAEDEADYYCGSYTSSGSYVFGTGTKLTVL
modifications: drug-linker Compound 5 on antibody cysteine thiols (positions not stated)
B11: anti-BCMA-AB2-Compound 6 (antibody, V domains shown)
VH: EVQLVESGGGLVKPGGSLRLSCAASGFTSSTAWMSWVRQAPGKGLEWVGRIKSKSDGGTTDYAAPVKGRFTISRDDSKNTLFLQMNSLKTEDTAVYYCAKGGGTYGYWGQGTTVTVSS
VL: QSALTQPASVSGSPGQSVTISCTGTSSDGGGHTYVSWYQQHPGKAPKLMIYDVSNRPSWVSNRFSGSKSGNTASLTISGLQAEDEADYYCGSYTSSGSYVFGTGTKLTVL
modifications: drug-linker Compound 6 on antibody cysteine thiols (positions not stated)
B12: anti-BCMA-AB2-Compound 8 (antibody, V domains shown)
VH: EVQLVESGGGLVKPGGSLRLSCAASGFTSSTAWMSWVRQAPGKGLEWVGRIKSKSDGGTTDYAAPVKGRFTISRDDSKNTLFLQMNSLKTEDTAVYYCAKGGGTYGYWGQGTTVTVSS
VL: QSALTQPASVSGSPGQSVTISCTGTSSDGGGHTYVSWYQQHPGKAPKLMIYDVSNRPSWVSNRFSGSKSGNTASLTISGLQAEDEADYYCGSYTSSGSYVFGTGTKLTVL
modifications: drug-linker Compound 8 on antibody cysteine thiols (positions not stated)
B13: anti-BCMA-AB2-Compound 4 (antibody, V domains shown)
VH: EVQLVESGGGLVKPGGSLRLSCAASGFTSSTAWMSWVRQAPGKGLEWVGRIKSKSDGGTTDYAAPVKGRFTISRDDSKNTLFLQMNSLKTEDTAVYYCAKGGGTYGYWGQGTTVTVSS
VL: QSALTQPASVSGSPGQSVTISCTGTSSDGGGHTYVSWYQQHPGKAPKLMIYDVSNRPSWVSNRFSGSKSGNTASLTISGLQAEDEADYYCGSYTSSGSYVFGTGTKLTVL
modifications: drug-linker Compound 4 on antibody cysteine thiols (positions not stated)

The binders below were run against T1, Human BCMA (B Cell Maturation Antigen) (human, UniProt Q02223 1-184) (assay: cell-based or functional assay).
T1 sequence: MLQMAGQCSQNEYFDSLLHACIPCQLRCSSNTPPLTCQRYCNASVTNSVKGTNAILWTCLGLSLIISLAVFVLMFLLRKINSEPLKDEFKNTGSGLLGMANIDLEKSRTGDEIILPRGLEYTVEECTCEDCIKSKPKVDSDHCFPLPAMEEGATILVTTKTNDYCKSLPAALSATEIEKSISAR

| Binder | EC50 of cell viability (Cell Titer-Glo), MM.1R (BCMA+) cells, 5-day assay [nM] | EC50 of cell viability (Cell Titer-Glo), NCI-H929 (BCMA+) cells, 5-day assay [nM] |
| --- | --- | --- |
| B1 | 1.02 | 0.168 |
| B2 | 0.987 | 0.316 |

Biological target: T1, Human BCMA (B Cell Maturation Antigen)
Test: cell-based or functional assay
Remark: another data set of the same source

| Binder | EC50 of cell viability (Cell Titer-Glo), MM.1R (BCMA+) cells, 4-day assay [nM] | EC50 of cell viability (Cell Titer-Glo), NCI-H929 (BCMA+) cells, 4-day assay [nM] |
| --- | --- | --- |
| B3 | 37.7 | 2.64 |
| B4 | > 1000 | 13.1 |
| B5 | 20.5 | 3.04 |
| B6 | 348 | 5.15 |
| B7 | 16.6 | 2.38 |

Biological target: T1, Human BCMA (B Cell Maturation Antigen)
Test: cell-based or functional assay
Remark: another data set of the same source

| Binder | EC50 of cell viability (Cell Titer-Glo), MM.1R (BCMA+) cells [nM] | EC50 of cell viability (Cell Titer-Glo), NCI-H929 (BCMA+) cells [nM] |
| --- | --- | --- |
| B8 | 259 | 19.4 |
| B9 | 55.3 | 7.31 |
| B10 | 143 | 10 |
| B11 | 129 | 9.44 |
| B12 | > 1000 | 29.7 |
| B13 | > 1000 | 59 |
